Data reported in the DeepSol protein solubility set.

Assay: soluble on expression in E. coli; label from the status in PepcDB or PDB records

| Sequence | soluble on expression in E. coli |
| --- | --- |
| MALLQISEPGLSAAPHQRRLAAGIDLGTTNSLVATVRSGQAETLPDHEGRHLLPSVVHYQQQGHTVGYAARDNAAQDTANTISSVKRMMGRSLADIQTRYPHLPYRFKASVNGLPMIDTAAGLLNPVRVSADILKALAARASESLSGELDGVVITVPAYFDDAQRQGTKDAARLAGLHVLRLLNEPTAAAIAYGLDSGKEGVIAVYDLGGGTFDISILRLSRGVFEVLATGGDSALGGDDFDHLLADYIREQAGIADRSDNRVQRELLDAAIAAKIALSDADTVRVNVAGWQGEITREQFNDLISALVKRTLLACRRALKDAGVEPQDVLEVVMVGGSTRVPLVRERVGEFFGRTPLTAIDPDKVVAIGAAIQADILVGNKPDSEMLLLDVIPLSLGLETMGGLVEKVIPRNTTIPVARAQDFTTFKDGQTAMSIHVMQGERELVQDCRSLARFALRGIPPLPAGGAHIRVTFQVDADGLLSVTAMEKSTGVEASIQVKPSYGLTDGEIASMIKDSMSFAEQDVKARMLAEQKVEAARVLESLTGALTADAALLSAAERQCIDDAAAHLSAVAQGDDVDAIEQAIKNVDKQTQEFAARRMDQSVRRALKGHSVDEV | not soluble |
| MALMTMVQALNRALDEEMAKDPRVVVLGEDVGKRGGVFLVTEGLLQKYGPDRVMDTPLSEAAIVGAALGMAAHGLRPVAEIQFADYIFPGFDQLVSQVAKLRYRSGGQFTAPLVVRMPSGGGVRGGHHHSQSPEAHFVHTAGLKVVAVSTPYDAKGLLKAAIRDEDPVVFLEPKRLYRSVKEEVPEEDYTLPIGKAALRREGKDLTLIGYGTVMPEVLQAAAELAKAGVSAEVLDLRTLMPWDYEAVMNSVAKTGRVVLVSDAPRHASFVSEVAATIAEDLLDMLLAPPIRVTGFDTPYPYAQDKLYLPTVTRILNAAKRALDY | soluble |
| MALNTNQLFAYLNRGDIAEFKFSPLFTTLFFPNVATFSTQNIMLDTLDIEEVTMSAFCSPMVGSQVQRDKGYETSTIKPGYMKPKHEIDPTKTIMRMAGEDPAQLNDPTYRRMRLITGNMRRQINAIKARVEWLAVNAVTTGKNIIEGEGIERYEIDWKIPEKNIIEQADGKKWSEQDKETHYPIYDIELYADQAGCPANVMIMGAEVWRTLRSFKKFRELYDLSRGSESAAELACKNLGEVVSFKGYLGDLALIVYSGKYTDSDGTEKYFLEPDLLVLGNTNNKGLVAYGAIMDQEAVRTGATQNMFYPKNWIEDGDPAIEYVQTHSAPQPVPADIRKFVTVKIA | not soluble |
| MALSANSDAVTYAKAANTRTAAETGDRIEWVKLSLAFLPLATPVSDAKVLTGRQKPLTEVAIIIAEIRSRDGFEGVGFSYSKRAGGQGIYAHAKEIADNLLGEDPNDIDKIYTKLLWAGASVGRSGMAVQAISPIDIALWDMKAKRAGLPLAKLLGAHRDSVQCYNTSGGFLHTPLDQVLKNVVISRENGIGGIKLAVGQPNCAEDIRRLTAVREALGDEFPLMVDANQQWDRETAIRMGRKMEQFNLIWIEEPLDAYDIEGHAQLAAALDTPIATGEMLTSFREHEQLILGNASDFVQPDAPRVGGISPFLKIMDLAAKHGRKLAPHFAMEVHLHLSAAYPLEPWLEHFEWLNPLFNEQLELRDGRMWISDRHGLGFTLSEQARRWTQLTCEFGKRP | soluble |
| MAMNLPADNEGKIKLAMSILVTIINDTGVPRNIRRAAANALTHLRDPRLSPAVRAANAISALEEVSQDPNMPFYARTRIWQVITILETVRD | not soluble |
| MAMSFIKPIYQDINSILIGQKVKRPKSGTLSGHAAGEPFEKLVYKFLKENLSDLTFKQYEYLNDLFMKNPAIIGHEARYKLFNSPTLLFLLSRGKAATENWSIENLFEEKQNDTADILLVKDQFYELLDVKTRNISKSAQAPAIISAYKLAQTCAKMIDNKEFDLFDINYLEVDWELNGEDLVCVSTSFAELFKSEPSELYINWAAAMQIQFHVRDLDQGFNGTREEWAKSYLKHFVTQAEQRAISMIDKFVKPFKKYILRSRELVDPNSVQARLQDVDGTIDTRSKLAAAQLYTRASQPELAPEDPEDLEHHHHHH | soluble |
| MANAASGMAVHDDCKLRFLELKAKRTHRFIVYKIEEKQKQVVVEKVGQPIQTYEEFAACLPADECRYAIYDFDFVTAENCQKSKIFFIAWCPDIAKVRSKMIYASSKDRFKRELDGIQVELQATDPTEMDLDVFRSRAN | soluble |
| MANCQIAILYQRFQRVVFGISQLLCFSALISELTNQKEVAAWTYHYSTKAYSWNISRKYCQNRYTDLVAIQNKNEIDYLNKVLPYYSSYYWIGIRKNNKTWTWVGTKKALTNEAENWADNEPNNKRNNEDCVEIYIKSPSAPGKWNDEHCLKKKHALCYTASCQDMSCSKQGECLETIGNYTCSCYPGFYGPECEYVRECGELELPQHVLMNCSHPLGNFSFNSQCSFHCTDGYQVNGPSKLECLASGIWTNKPPQCLAAQCPPLKIPERGNMTCLHSAKAFQHQSSCSFSCEEGFALVGPEVVQCTASGVWTAPAPVCKAVQCQHLEAPNEGTMDCVHPLTAFAYGSSCKFECQPGYRVRGLDMLRCIDSGHWSAPLPTCEAISCEPLESPVHGSMDCSPSLRAFQYDTNCSFRCAEGFMLRGADIVRCDNLGQWTAPAPVCQALQCQDLPVPNEARVNCSHPFGAFRYQSVCSFTCNEGLLLVGASVLQCLATGNWNSVPPECQAIPCTPLLSPQNGTMTCVQPLGSSSYKSTCQFICDEGYSLSGPERLDCTRSGRWTDSPPMCEAIKCPELFAPEQGSLDCSDTRGEFNVGSTCHFSCNNGFKLEGPNNVECTTSGRWSATPPTCKGIASLPTPGVQCPALTTPGQGTMYCRHHPGTFGFNTTCYFGCNAGFTLIGDSTLSCRPSGQWTAVTPACRAVKCSELHVNKPIAMNCSNLWGNFSYGSICSFHCLEGQLLNGSAQTACQENGHWSTTVPTCQDDGKCPLNPHSHLGTYGVFTNAAFDPSP | soluble |
| MANFMSKEAPFWKVKKLEEMSLSEWESLCDGCGLCCLHKVEDDDTGDIYATSVACRLLDSETCRCRNYVHRKSIVPDCIFLNLATIKTVRWLPENCAYRLIYEGKDLYWWHPLVSGNYQTVHQTQFSARGQIEIYEDELSSEEDYLQYITGILCEGR | not soluble |
| MANIDYMMDPGWKYLRQAQDEALKEQAARRFDNKTHAWVPDAAEGFVTAAVAVQEGDNLTFTMPDGTPKKLTRAEVQEINPAKFEKTEDMSNLTFLNEASVLHNLRQRYYSMMIYTYSGLFCVFINPYKMLPIYTDSVASMYVNKRRAEMPPHLFAVSDEAFRNMMSDKENQSMLITGESGAGKTENTKKVIAYFAMIGSGNKDQKSESSLENQVVQANPAIEAFGNGATTRNYNSSRYGKFIRIHFDRKGKLVGGDIEHYLLEKSRVIKQAPGERSYHIFYQIMTQKALRERYGLSDNIRDYKFVSQAEITVPGMNDTEEWQITDGAFNVMGFSEREKDDLYKLCSAIMHIGNSTFKQKPRDEQAEVDDMTSPTAACKLFGINTDQFLNALTRPRIKVGMEWVNKGQNVQQVDWAVGALSKAIYARMFNWLIKRVNKTLQANSDEMVYYIGVLDIAGFEIFDRNSFEQLWINFVNEKLQQFFNHHMFVLEQEEYQREGIEWTFIDFGLDLQSCIELIEKPLGIVSMLDEECIVPKASDMTYVDKLLTQHLGKHPNFQKAKPPKGKQAEAHFSIMHYAGTVRYNAEQWLDKNKDPLNDSAVAILKTSDKEGVLYQLWEEYQTDVDREESEKRGKAQAKKKGKSASFLTVSTMYRESLTSLMTMLHTTHPHFIRCIIPNEKKTSGLIDAPLVLNQLTCNGVLEGIRICRKGFPNRMMFADFRFRYAILAADEASDKDAAKASKAMLRKLSKNNQLNVDTFKVGTTKVFFRAGMLARLEELRDEALSAVILKFQCSLRHYLAQLEYKRRLDREDAYPIIQENIRAWIKLRSWPWYRLFSRLKPMLKGMKSNAEIEALEKKCKELEENHKREEEARKKYADELRAKIDQYEETKAAHERDRMLLDKRNKEIEELNRNLKAESESNYENAKKASELERLREKEKKEWDEKERRMQMEAENEANQHKTQTEKLKDQISTLQTDFEKVSAQRKAQEQMNAELVDEVASFKQKAERAEEQKKKLVEDLDSLDDKLAAEKRANNEHVKHNKKLEGQLKATQTQLTLALKEKHEFDVDCKRRESEIGELKLKAQGDANLISKLQAMLRKCISRIEELEEDLLEERKLRMKAERQFNELRSEYEVLQEQMAEASGQLTAEAHINKVRAEEVSNLRRDLQKRNLNHEAYISDLCNMQYATVNNLRNLSQQSATLESEALRILDHRRALSKQPLPRVYVEDPDSDSD | not soluble |
| MANKGIVPVKISLTEGDFYTLWAPQWREHGAEWQAFLGSGDDLYVFESPAAVLAYIESGARHDLSDHPKWGAFMAGADDRVVPTDRQEYDLIGVPALLAERPSHTNVSAVARCFAITRSLGDVTATIPVQSFFSSHSILMNTERGGNHFTGDSGLGEWTGIGRIVLTSWNNVIDALDSAITVHTDGNAEAISAAAARIDAATAEAEQRRIAEEKKKKADAEKVDPYDATPWAAAGIDPIKISIDGRTVYTLRTYIEAQPVFLGKYGEIFTFNSGKSLVRWLVEHDDHDLARVSTWEDLMVPVNAGELDITVHPDNVYSFNGLTRDINTSVEAVDTAQMARAYELLADAADWAADDSLNSYFLTNPRMQDYISYMIGSTRVSGYTPTPPFTEHSESWAEMEKMLTKRFSKF | not soluble |
| MANPAAAAGPSGGARSFLQAVSTVTEEAPSPLRVVQMEGLAVLKIIKHCEEFAPALVTGQLLGLDVGSVLEVTNCFPFPMREDDEEADADGANYQLEMMRCLREVNVDNNTVGWYQSCLLGSFQTVELIETFMNYQENIRRCVCIVYDPSRSNQGVLALKALKLTDSFMDLYRNNGLTGEKLREKKLSWVDIFEEIPIKVSNSALVSAFMTELEPESPVSQCDFDRLKLSTAPFMERNLEFLIGCMDDLSSEQNKFQYYYRNVSRQQSQQQAWLQKRRQENMARKAAGEEPLPEEDPSNPIFKPIPEPSRLEGYLVTNQISSYCNHINGVAGQNFNRLYLMKALQED | soluble |
| MANRGGEYLYDELWKLCAGPLVDVPQAQERVYYFPQGHMEQLEASTQQVDLNTMKPLFVLPPKILCNVMNVSLQAEKDTDEVYAQITLIPVGTEVDEPMSPDPSPPELQRPKVHSFSKVLTASDTSTHGGFSVLRKHATECLPPLDMTQQTPTQELVAEDVHGYQWKFKHIFRGQPRRHLLTTGWSTFVTSKRLVAGDTFVFLRGENGELRVGVRRANLQQSSMPSSVISSHSMHLGVLATARHATQTKTMFIVYYKPRTSQFIISLNKYLEAMSNKFSVGMRFKMRFEGEDSPERRYSGTVIGVKDCSPHWKDSKWRCLEVHWDEPASISRPNKVSPWEIEPFVNSENVPKSVMLKNKRPRQVSEVSALDVGITASNLWSSVLTQPHEFAQSCITSQWSSPQQCHRDANEDAKKSDWLNNSYSVSNVAKDSTLNDQMVSPVEQKKPETTANYRLFGIDLMSSSLAVPEEKTAPMRPINISKPTMDSHSDPKSEISKVSEEKKQEPAEGSPKEVQSKQSSSTRSRTKVQMQGVPVGRAVDLNALKGYNELIDDIEKLFDIKGELRSRNQWEIVFTDDEGDMMLVGDDPWPEFCNMVKRIFIWSKEEVKKMTPGNQLRMLLREVETTLTTTSKTDNHSN | soluble |
| MANRTEKAAKTVKGTNPQFLVEKIIRQRIYDSMYWKEHCFALTAELVVDKGMDLRYIGGIYAGNIKPTPFLCLALKMLQIQPDKDIVLEFIQQEEFKYIRALGAMYLRLTFDSTEIYKYLEPLYNDFRKLRYMNKMGRFEAIYMDDFIDNLLREDRYCDIQLPRLQKRWALEEVDMLPSYKSLLDGDLVAMSDSDSEEEEVTKKEKPRLTSRRRSRSRDRERDVGDRREVREREKLKERRERGDDEPGPSSSGSGRRDDRDDRRRDRDRSRDRDRRDRRDDDRRDKKKESRRGGADNDEEREIAEANALRAKLGLAPLER | not soluble |
| MAPAEILNGKEISAQIRARLKNQVTQLKEQVPGFTPRLAILQVGNRDDSNLYINVKLKAAEEIGIKATHIKLPRTTTESEVMKYITSLNEDSTVHGFLVQLPLDSENSINTEEVINAIAPEKDVDGLTSINAGRLARGDLNDCFIPCTPKGCLELIKETGVPIAGRHAVVVGRSKIVGAPMHDLLLWNNATVTTCHSKTAHLDEEVNKGDILVVATGQPEMVKGEWIKPGAIVIDCGINYVPDDKKPNGRKVVGDVAYDEAKERASFITPVPGGVGPMTVAMLMQSTVESAKRFLEKFKPGKWMIQ | soluble |
